B1: LRRC4B (364-713): FLAG-tagged LRRC4B deletion construct, amino acids 364-713 of SEQ ID NO: 2 (protein)
chain: PVIVEPPTDLNVTEGMAAELKCRTGTSMTSVNWLTPNGTLMTHGSYRVRISVLHDGTLNFTNVTVQDTGQYTCMVTNSAGNTTASATLNVSAVDPVAAGGTGSGGGGPGGSGGVGGGSGGYTYFTTVTVETLETQPGEEALQPRGTEKEPPGPTTDGVWGGGRPGDAAGPASSSTTAPAPRSSRPTEKAFTVPITDVTENALKDLDDVMKTTKIIIGCFVAITFMAAVMLVAFYKLRKQHQLHKHHGPTRTVEIINVEDELPAASAVSVAAAAAVASGGGVGGDSHLALPALERDHLNHHHYVAAAFKAHYSSNPSGGGCGGKGPPGLNSIHEPLLFKSGSKENVQETQI
modifications: FLAG tag
B2: LRRC4B (157-713): FLAG-tagged LRRC4B deletion construct, amino acids 157-713 of SEQ ID NO: 2 (protein)
chain: LSKLRELWLRNNPIESIPSYAFNRVPSLRRLDLGELKRLEYISEAAFEGLVNLRYLNLGMCNLKDIPNLTALVRLEELELSGNRLDLIRPGSFQGLTSLRKLWLMHAQVATIERNAFDDLKSLEELNLSHNNLMSLPHDLFTPLHRLERVHLNHNPWHCNCDVLWLSWWLKETVPSNTTCCARCHAPAGLKGRYIGELDQSHFTCYAPVIVEPPTDLNVTEGMAAELKCRTGTSMTSVNWLTPNGTLMTHGSYRVRISVLHDGTLNFTNVTVQDTGQYTCMVTNSAGNTTASATLNVSAVDPVAAGGTGSGGGGPGGSGGVGGGSGGYTYFTTVTVETLETQPGEEALQPRGTEKEPPGPTTDGVWGGGRPGDAAGPASSSTTAPAPRSSRPTEKAFTVPITDVTENALKDLDDVMKTTKIIIGCFVAITFMAAVMLVAFYKLRKQHQLHKHHGPTRTVEIINVEDELPAASAVSVAAAAAVASGGGVGGDSHLALPALERDHLNHHHYVAAAFKAHYSSNPSGGGCGGKGPPGLNSIHEPLLFKSGSKENVQETQI
modifications: FLAG tag
B3: LRRC4B (36-713): FLAG-tagged LRRC4B deletion construct, amino acids 36-713 of SEQ ID NO: 2 (protein)
chain: AGGGGVAVTSAAGGGSPPATSCPVACSCSNQASRVICTRRDLAEVPASIPVNTRYLNLQENGIQVIRTDTFKHLRHLEILQLSKNLVRKIEVGAFNGLPSLNTLELFDNRLTTVPTQAFEYLSKLRELWLRNNPIESIPSYAFNRVPSLRRLDLGELKRLEYISEAAFEGLVNLRYLNLGMCNLKDIPNLTALVRLEELELSGNRLDLIRPGSFQGLTSLRKLWLMHAQVATIERNAFDDLKSLEELNLSHNNLMSLPHDLFTPLHRLERVHLNHNPWHCNCDVLWLSWWLKETVPSNTTCCARCHAPAGLKGRYIGELDQSHFTCYAPVIVEPPTDLNVTEGMAAELKCRTGTSMTSVNWLTPNGTLMTHGSYRVRISVLHDGTLNFTNVTVQDTGQYTCMVTNSAGNTTASATLNVSAVDPVAAGGTGSGGGGPGGSGGVGGGSGGYTYFTTVTVETLETQPGEEALQPRGTEKEPPGPTTDGVWGGGRPGDAAGPASSSTTAPAPRSSRPTEKAFTVPITDVTENALKDLDDVMKTTKIIIGCFVAITFMAAVMLVAFYKLRKQHQLHKHHGPTRTVEIINVEDELPAASAVSVAAAAAVASGGGVGGDSHLALPALERDHLNHHHYVAAAFKAHYSSNPSGGGCGGKGPPGLNSIHEPLLFKSGSKENVQETQI
modifications: FLAG tag
B4: LRRC4B (453-713): FLAG-tagged LRRC4B deletion construct, amino acids 453-713 of SEQ ID NO: 2 (protein)
chain: VSAVDPVAAGGTGSGGGGPGGSGGVGGGSGGYTYFTTVTVETLETQPGEEALQPRGTEKEPPGPTTDGVWGGGRPGDAAGPASSSTTAPAPRSSRPTEKAFTVPITDVTENALKDLDDVMKTTKIIIGCFVAITFMAAVMLVAFYKLRKQHQLHKHHGPTRTVEIINVEDELPAASAVSVAAAAAVASGGGVGGDSHLALPALERDHLNHHHYVAAAFKAHYSSNPSGGGCGGKGPPGLNSIHEPLLFKSGSKENVQETQI
modifications: FLAG tag
B5: LRRC4B (364-576): FLAG-tagged LRRC4B deletion construct, amino acids 364-576 of SEQ ID NO: 2 (protein)
chain: PVIVEPPTDLNVTEGMAAELKCRTGTSMTSVNWLTPNGTLMTHGSYRVRISVLHDGTLNFTNVTVQDTGQYTCMVTNSAGNTTASATLNVSAVDPVAAGGTGSGGGGPGGSGGVGGGSGGYTYFTTVTVETLETQPGEEALQPRGTEKEPPGPTTDGVWGGGRPGDAAGPASSSTTAPAPRSSRPTEKAFTVPITDVTENALKDLDDVMKTTK
modifications: FLAG tag
B6: LRRC4B (230-713): FLAG-tagged LRRC4B deletion construct, amino acids 230-713 of SEQ ID NO: 2 (protein)
chain: RLEELELSGNRLDLIRPGSFQGLTSLRKLWLMHAQVATIERNAFDDLKSLEELNLSHNNLMSLPHDLFTPLHRLERVHLNHNPWHCNCDVLWLSWWLKETVPSNTTCCARCHAPAGLKGRYIGELDQSHFTCYAPVIVEPPTDLNVTEGMAAELKCRTGTSMTSVNWLTPNGTLMTHGSYRVRISVLHDGTLNFTNVTVQDTGQYTCMVTNSAGNTTASATLNVSAVDPVAAGGTGSGGGGPGGSGGVGGGSGGYTYFTTVTVETLETQPGEEALQPRGTEKEPPGPTTDGVWGGGRPGDAAGPASSSTTAPAPRSSRPTEKAFTVPITDVTENALKDLDDVMKTTKIIIGCFVAITFMAAVMLVAFYKLRKQHQLHKHHGPTRTVEIINVEDELPAASAVSVAAAAAVASGGGVGGDSHLALPALERDHLNHHHYVAAAFKAHYSSNPSGGGCGGKGPPGLNSIHEPLLFKSGSKENVQETQI
modifications: FLAG tag

The first assay concerns the target T1, FAM19A5 protein (Homo sapiens, UniProt Q7Z5A7). In words: Co-immunoprecipitation of FLAG-tagged LRRC4 family deletion constructs/fragments with recombinant FAM19A5 in HEK293 cells. The class given is binding. The note with it: HEK293 cells expressing FLAG-tagged construct, recombinant FAM19A5 1 μM 30 minutes; IP anti-FLAG, blot anti-FAM19A5 (3-2). As for the experimental part:
To understand the interaction between FAM19A5 and members of the LRRC4 protein family, HEK293 cells were modified to express a FLAG-tagged member of the LRRC4 protein family, i.e., LRRC4C protein, LRRC4 protein, or LRRC4B protein. Then, the HEK293 cells or primary cortical neurons were treated with recombinant FAM19A5 protein (1 μM) for 30 minutes, and the binding between FAM19A5 protein and the different members of the LRRC4 protein family was assessed using both co-immunoprecipitation and immunofluorescence assays.
For the co-immunoprecipitation assay, cell lysates from the different FAM19A5-treated HEK293 cells were collected and immunoprecipitated with an anti-FLAG antibody, anti-FAM19A5 (1-65) antibody, or a human IgG antibody (control). Immunoprecipitated proteins were immunoblotted with anti-FLAG and anti-FAM19A5 (3-2) antibodies. For the immunofluorescence assay, the HEK293 cells treated with the recombinant FAM19A5 protein were immunostained with anti-FAM19A5 (3-2) (to detect FAM19A5 protein expression) and anti-FLAG antibodies (to detect member of the LRRC4 protein family). The primary cortical neurons treated with the recombinant FAM19A5 protein were immunostained with anti-FAM19A5 (3-2) and anti-LRRC4B antibodies. The nuclei were stained with Hoechst33342 (blue).
To determine the specific motif or domain of the LRRC4B protein that is responsible for the binding to a FAM19A5 protein, various FLAG-tagged LRRC4B deletion constructs were generated (see Table 6 below). HEK293 cells were transfected with the different deletion constructs and then treated with recombinant FAM19A5 protein as described in Example 1. Then, the cell lysates from the different HEK293 cells were immunoprecipitated with the anti-FLAG antibody. The immunoprecipitated proteins were immunoblotted with anti-FLAG and anti-FAM19A5 (3-2) antibodies.
As described in Example 2, all members of the LRRC4 protein family were capable of binding to FAM19A5 protein to varying degrees. Therefore, to compare the bindings domains, the amino acid sequences of the LRRC4B, LRRC4, and LRRC4C proteins were aligned. […] Therefore, to assess whether the corresponding positions of LRRC4 and LRRC4C were important in the binding of these proteins to FAM19A5 protein, cDNAs encoding either (i) LRRC4C protein fragment (amino acids 354-527 of SEQ ID NO: 3; SEQ ID NO: 66) or (ii) LRRC4 protein fragment (amino acids 353-527 of SEQ ID NO: 1; SEQ ID NO: 67) were constructed (see Table 7). HEK293 cells were transfected to express either of the protein fragments and then treated with recombinant FAM19A5 protein as described in Example 1. Then, the cell lysates from the different HEK293 cells were immunoprecipitated with the anti-FLAG antibody. The immunoprecipitated proteins were immunoblotted with anti-FLAG and anti-FAM19A5 (3-2) antibodies.
Target sequence in this assay (Q7Z5A7 44-132): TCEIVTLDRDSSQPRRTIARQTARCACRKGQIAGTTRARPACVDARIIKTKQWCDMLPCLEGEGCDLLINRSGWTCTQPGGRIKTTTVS
As to B1, the “binding to FAM19A5 protein (co-immunoprecipitation)” value was “able to bind to the FAM19A5 protein with varying degree”.
Still for that read-out and setting: the same measure for B2: “able to bind to the FAM19A5 protein with varying degree”; for B3: “able to bind to the FAM19A5 protein with varying degree”.
In the case of B4, the “binding to FAM19A5 protein (co-immunoprecipitation)” value is on record as “able to bind to the FAM19A5 protein with varying degree”.
On the same count and under the same terms, the same measure for B5: “able to bind to the FAM19A5 protein with varying degree”.
Still for that read-out and setting: as for B6, the entry is “able to bind to the FAM19A5 protein with varying degree”.

The target in the next assay is T1, FAM19A5 protein. The assay can be described thus: competitive inhibition ELISA; competitor: coated LRRC4B(36-576)-hFc.
Details: not given
In general terms: An ELISA detects its analyte on a solid surface through an enzyme-linked reagent.
Regarding GYTYFTTVTVATLETQPGEE [FB-20[A10]], the Inhibition rate (%) came to 19.6%.
With GYTYFTTVTAETLETQPGEE [FB-20[A9]], the Inhibition rate (%) turned out to be 21.5%.
With GYTYFTTATVETLETQPGEE [FB-20[A7]], the Inhibition rate (%) was 26.8%.
On the same count and under the same terms, the same measure for GYTYFTTVTVEALETQPGEE [FB-20[A11]]: 73.4%.
The same measure, in the same setting: as for GYTYFTTVTVETLATQPGEE [FB-20[A13]], the figure is 51.4%; as for GYTYATTVTVETLETQPGEE [FB-20[A4]], 2.7%.
On the same count and under the same terms, the same measure for GYTYFATVTVETLETQPGEE [FB-20[A5]]: 53.4%.
Consider GYTYFTAVTVETLETQPGEE [FB-20[A6]], for which the Inhibition rate (%) was 17.9%.
Same read-out and setting: as for GYTYFTTVAVETLETQPGEE [FB-20[A8]], the figure is 3.9%; as for GYTYFTTVTVETAETQPGEE [FB-20[A12]], 73%.

The target of the next assay is T1, FAM19A5 protein. In words: competitive inhibition ELISA; competitor: coated LRRC4B(453-576)-hFc.
Details: not given
Turning to GYTYFTTVTVATLETQPGEE [FB-20[A10]], the Inhibition rate (%) came to 6.4%.
On the same count and under the same terms, as for GYTYFTTVTAETLETQPGEE [FB-20[A9]], the figure is 3.8%; as for GYTYFTTATVETLETQPGEE [FB-20[A7]], 7.9%.
In the case of GYTYFTTVTVEALETQPGEE [FB-20[A11]], the Inhibition rate (%) amounted to 50.3%.
In the case of GYTYFTTVTVETLATQPGEE [FB-20[A13]], the Inhibition rate (%) was determined as 27.2%.
The same measure, in the same setting: the same measure for GYTYATTVTVETLETQPGEE [FB-20[A4]]: 1.5%; for GYTYFATVTVETLETQPGEE [FB-20[A5]]: 22.2%; for GYTYFTAVTVETLETQPGEE [FB-20[A6]]: 11%.
The same measure, in the same setting: as for GYTYFTTVAVETLETQPGEE [FB-20[A8]], the figure is -0.4%.
The same measure, in the same setting: as for GYTYFTTVTVETAETQPGEE [FB-20[A12]], the figure is 56.2%.

The record behind these values is patent US20240238445A1, “INHIBITORS AND USES THEREOF” (NEURACLE SCIENCE CO., LTD., priority 2021, published 2024).
